The experiment addresses 40S-containing ribosomal complexes. Kind of experiment: co-sedimentation.

B1: DExH-box protein DHX29 (enzyme)
chain: MGGKNKKHKAPGAAAVRAAVSASRAKSAEAAAAGEAQSKKPVARPPPAAAAGAREPRVKQGPKIYSFNSANDSGGPANVDKSILKVVINNKLEQRIIGVINEHKKQNNDKGMISGRLTAKKLQDLYMALQAFSFKTKDIEDAMTNTLLHGGDLHSALDWLCLNLSDDALPEGFSQEFEEQQAKSRPKFQAPQIQATISPPLQPKIKKQEEDPKIKPKKEDKNMEVNMKEWILQYAERQKEEEKSESSKSLEEEEKFDPNERYLHLAAKFLDAKEQAAAFKLEKNKQGQKEAQEKIRKFQREMETLEDHPVFNPAIKISYQQNERKKPPVATEGESSLNFNLFEKSAAPTEEEKDKKKEPHDVRNFDYTARSWTGKSPKQFLIDWVRKNLPKSPNPSFEKVPVGRYWKCRVRVIKSEDDVLVVCPAILTEDGMQAQHLGATLALYRLVKGQSVHQLLPPTYRDVWLEWSDAEKKKEELNKMETNKPRDLFIAKLLNKLKQQQQLQQQHSENKKENSEDPEESWENLVSEEDFSALSLESAVAEDLEPVRNLFRKLQSSPKYQRLLKERQQLPVFKHRESIVETLKRHRVVVVAGETGSGKSTQVPHFLLEDLLLNEWGTSKCNIICTQPRRISAVSLATRVCDELGCENGPGGRNSLCGYQIRMESRASESTRLLYCTTGVLLRKLQEDGLLSNVSHVIVDEVHERSVQSDFLLVILKEILQKRSDLHLILMSATVDSEKFSTYFTHCPILRISGRSYPVEVFHLEDIIEETGFVLEKDSEYCQKFLEEEEEITINVTSKAGGIKKYQEYIPVQTGTTADLNPLYQKYSNRTQHAILYMNPHKINLDLILELLVYLDKSPQFRNIEGAVLIFLPGLAHIQQLYDLLSNDRRFYSERYKVIALHSILSTQDQAAAFTLPPPGVRKIVLATNIAETGITIPDVVFVIDTGRTKENKYHESSQMSSLVETFVSKASALQRQGRAGRVRDGFCFRMYTRERFEGFMDYSVPEILRVPLEELCLHIMKCNLGSPEDFLSKALDPPQLQVISNAMNLLRKIGACELNEPKLTPLGQHLAALPVNVKIGKMLIFGAIFGCLDPVATLAAVMTEKSPFTTPIGRKEEADLAKSALAIADSDHLTIYNAYLGWKKAQQEGGYRSELAYCRRNFLNRTALLTLEDVKQELMKLVKAAGFSSTTSNNWEGNRASQTLSFQEIALLKAVLAAGLYDNVGKIIYTKSVDVTEKLACIVETAQGKAQVHPSSVNRDLQTYGWLLYQEKIRYARVYLRETTLITPFPVLLFGGDIEVQHRERLLSIDGWIYFQAPVKIAVIFKQLRVLIDSVLRKKLENPKMSLENDKILQIITELIKTENN
For the molecule B1, the percent of 40S-ribosomal complexes associated with DHX29 was found to be 10%.
